Measured values as given in PMC5187420, “Structural insights into ribosomal rescue by Dom34 and Hbs1 at near-atomic resolution” (Nature Communications, 2016).

Target: T1, Hbs1 (S. cerevisiae, UniProt P32769 1-611)
T1 construct: Hbs1, S. cerevisiae, eEF1A-like GTPase; N-terminal domain is seen in the map, linker aa 78-140 disordered; source: E. coli BL21 (DE3), purified (Nickel-NTA, size-exclusion chromatography)
T1 sequence (looked up): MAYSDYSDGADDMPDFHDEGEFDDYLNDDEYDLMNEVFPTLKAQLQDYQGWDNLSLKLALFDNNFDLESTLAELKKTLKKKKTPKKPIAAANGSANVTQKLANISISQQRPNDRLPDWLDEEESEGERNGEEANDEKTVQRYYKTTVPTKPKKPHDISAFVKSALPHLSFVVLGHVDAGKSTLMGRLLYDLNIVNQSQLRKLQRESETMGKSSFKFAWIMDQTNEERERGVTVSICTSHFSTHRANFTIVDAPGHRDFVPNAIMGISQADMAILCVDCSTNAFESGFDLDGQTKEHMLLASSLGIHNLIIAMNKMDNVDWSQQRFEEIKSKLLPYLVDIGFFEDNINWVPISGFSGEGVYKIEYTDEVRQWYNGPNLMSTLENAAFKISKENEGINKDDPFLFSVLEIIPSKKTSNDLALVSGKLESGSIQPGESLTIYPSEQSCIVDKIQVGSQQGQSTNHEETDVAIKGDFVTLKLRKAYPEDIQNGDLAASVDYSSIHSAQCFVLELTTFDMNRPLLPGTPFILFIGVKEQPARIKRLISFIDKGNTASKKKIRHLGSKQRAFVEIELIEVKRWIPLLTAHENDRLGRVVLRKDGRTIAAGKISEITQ
Experiment: cryo-EM structure; Dom34 and Hbs1 (50 pmol each) pre-incubated with 1 mM GMPPNP in binding buffer (30 mM Hepes pH 7.5), 20 min at 30 °C, then combined with 10 pmol reassociated S. cerevisiae 80S ribosomes programmed with nonstop mRNA and AcPhe-tRNAPhe, 15 min at 30 °C; reconstruction at 3.3 Å
Conditions: both partners purified

binding result: binds
B1: Dom34 (natural protein, S. cerevisiae)
chain: MKVISLKKDSFNKGGAVITLLPEDKEDLFTVYQIVDKDDELIFKKKFTSKLDEAGKKKSTDLVKLKIKVISEDFDMKDEYLKYKGVTVTDESGASNVDIPVGKYLSFTLDYVYPFTIIKQNFNKFMQKLLNEACNIEYKSDTAAVVLQEGIAHVCLVTSSSTILKQKIEYSMPKKKRTTDVLKFDEKTEKFYKAIYSAMKKDLNFDKLKTIILCSPGFYAKILMDKIFQYAEEEHNKKILDNKGMFFIAHCSTGYLQGINEVLKNPLYASKLQDTKYSKEIMVMDEFLLHLNKDDDKAWYGEKEVVKAAEYGAISYLLLTDKVLHSDNIAQREEYLKLMDSVESNGGKALVLSTLHSLGEELDQLTGIACILKYPLPDLDEDDGEE
notes: Dom34, S. cerevisiae; also called Pelota in mammals; source: E. coli BL21 (DE3), purified (Nickel-NTA, size-exclusion chromatography)
